Measurements as given in the DeepSol protein solubility set.

Test: soluble on expression in E. coli; label from the status in PepcDB or PDB records

Sequence	soluble on expression in E. coli
MGSDKIHHHHHHMTTAQQTENKGQQTRTVAELVEDIKALTTEIQELYCLDQIPWVLGVSWGKDSSTVLQLVWNAIAALPPEKRTKTVYVITTDTQVENPVVSAWVRKSLQNLKIAAKEQGMPIDPHLLQPVIQDTFWVNLIGKGYPAPRNQFRWCTPRLKINPANQFIREIVRANGETILVLGTRKAESSKRAATMKKHQVDRVRDRLSPNASLPNSLIYTPIEDWSNNDVWIYLNQWNNPWGQSNKELFTMYRGATADNECPLVVDTSTPSCGDSRFGCWVCTLVSKDKSMEAMIQNDEEKEWMQPLLDIRNELDIKDDRDKRDFRRIWGEVQLFERNKDGKISVDPIPGPYTKYWREYWLKRLLEAQIKTRRTAPENMRDITLITLEEMSEIRRIWLEDKHEFDDSLPRIYQEVTGEEFQDPRPGADYSLLGRDEWIVLEEICEGDAMHLELMAKLLDTERQYRKKTRRVGIYETLEKCFNTSSRSPEDAIKNARLKRELSEAVSQGDVAKVKQMTLGDVAAINEVDEGQSESDEEVTWASMKFKKENSEE	not soluble
MGSDKIHHHHHHMTTFEVKDTAHVAFKIINLRCPHCHHAASFSGFDGCSDLRYNVQAKRHPSGATTNTFDIAGMRRCPNTTCRKLVFVMEDKYGEIESFPPEVIDFDASNLPSDILSSLEEAIRCHAANCYRASALMVRRTLEELCDNKSATGKDLKTRLAALGTVAVIPSELLSAADELRILGNDAAHIEAKDYDSIGKEESEIAIELAKELLKAVYQYTSLVARLTALKKPKQ	not soluble
MGSDKIHHHHHHMTTNEIEIRLMQDVDAAGVVELYKTVYGNEYPVKTVYDPAAVIEQQNNGEMYRIIARSGDKVVGQTALYRSTSPNPELYEEGQGIVLPLYRNQGILEQCLAYGHKVAYPQLNIKQEWGEAVCNHTFTQKAGARLGAFETGIELDLMPASSYVKEQSSQGRVAALVMFLIFQAAPPQLLYLPETYADSLHYLYSAYDFKHEFVSSKSLLPEQATRGQVEIYADAAVARFTLLETGKDLEDYLLEQEKLAQAQGCSVFQAYLKLANPAVGHAVNILREHQYFLGGILPRWFATDGLLMQKLLHEPNLEGINLYSERSHKILNMIIDDRNTVIK	not soluble
MGSDKIHHHHHHMTTNSLLIIDFEFTMPDGKYSPQNFFPEIIEAGIVKSIDDEVVETFSSYVRPKKFPKLTKRCKSFLKITQKQVDEGMRFEDFIRKLNELDPEKNSTIITWGNMDMKVLKQNCMFNHIPFPFKGEMRDLSLEYKNFFGDRTLTGLWKAAEEYGDSGTGTHHKALDDALTAYKLFKLVEQDKQYLEKPKPPTIGERIDLTELLKRAT	not soluble
MGSDKIHHHHHHMTTTSTPGLFERPITLPDADAQSRLAKLVGMDDKIRRLSNVLAVLINPAGLKEWLDQHHAHSTGLLDAVLRRPPLVVLSGDVGSGKTELAETIGDMVARQEGIDITLLPLSLSSRGQGRVGEMTQLVSAAFDHAFHEASKVKSSRGSRSRGGVILLVDEADALAQSREADQMHHEDRAGVNAFIRGIDRLANGHLPAAVLMCTNRLNALDPAVRRRAADILVFERPDEAQRLEVLHRRLGDAGFGKADLQSLVAATGEQAKRPYGFTYSDLTQRLLPAIVLDAYPQGPIKPSRAIELARAMAPTPPFKDSTARGC	not soluble
MGSDKIHHHHHHMTVHWRERVGNQRDWVWRGWRTRYTYIRPSQEGQEKTPLILLHGFGASIGHWRHNLEVLGESHTVYALDMLGFGGSEKAPANYSIELWVEQVYDFWRAFIRQPVVLIGNSNGSLISLAAAAAHPDMVKGIVMMSLPDPSLEQEMIPPFLRPVVTTIKNIVASPIFLKPVFYFVRRPSILRRWAGIAYANPAAITDELVDILAGPPQDRGSARAFSALFKAAIGVNFSPSVKAILPTLQIPMLLIWGNKDRFVPPILANQFAQYNEKLQLLNLDDVGHCPHDECPEQVNKAILAWMDKSLGDY	not soluble
MGSDKIHHHHHHMTVLHSPEPDIDPAILLEAADWLVLLQSGEATERDRMALAHWRERNPAHEAAWRRAENMLSTFDQVPPKLGHDTFSHLGNPGRRQMLRLGLLALAMPAAWITWRHSPWQEWVADLRTATGEQKLIDLNDGTHLVLNTTSAANVAFTTAERRLILLAGEILVTTGRDPSPVSRPFIVQTAHGSLRALGTRFTVRHFDDRTQVAVLEGAVEVHPAVSIQTTVLRAGEQMTFTGLDMQPVRPVEASTTLWEHGMLLARDMHLGELIAELNRYHRGVLRCDPSVASLAISGAFPVTDIPASLALLETTLPIRISSTTSWWITVQAR	not soluble
MGSDKIHHHHHHMTVQQFIKKLVRLVELERNAEINAMLDEMKRLSGEEREKKGRAVLGLTGKFIGEELGYFLVRFGRRKKIDTEIGVGDLVLISKGNPLKSDYTGTVVEKGERFITVAVDRLPSWKLKNVRIDLFASDITFRRQIENLMTLSSEGKKALEFLLGKRKPEESFEEEFTPFDEGLNESQREAVSLALGSSDFFLIHGPFGTGKTRTLVEYIRQEVARGKKILVTAESNLAVDNLVERLWGKVSLVRIGHPSRVSSHLKESTLAHQIETSSEYEKVKKMKEELAKLIKKRDSFTKPSPQWRRGLSDKKILEYAEKNWSARGVSKEKIKEMAEWIKLNSQIQDIRDLIERKEEIIASRIVREAQVVLSTNSSAALEILSGIVFDVVVVDEASQATIPSILIPISKGKKFVLAGDHKQLPPTILSEDAKDLSRTLFEELITRYPEKSSLLDTQYRMNELLMEFPSEEFYDGKLKAAEKVRNITLFDLGVEIPNFGKFWDVVLSPKNVLVFIDTKNRSDRFERQRKDSPSRENPLEAQIVKEVVEKLLSMGVKEDWIGIITPYDDQVNLIRELIEAKVEVHSVDGFQGREKEVIIISFVRSNKNGEIGFLEDLRRLNVSLTRAKRKLIATGDSSTLSVHPTYRRFVEFVKKKGTYVIF	not soluble
MGSDKIHHHHHHMTVRQDIHSSGIPVLCLSCAARLRGVCAALDPNHLVGLAKTSSRHKLEPGVELIADAEAVDSYSNLLSGVVKLTKCLSDGRQQIVGLRFAPDFLGRPFKVKSTINVEAATSVSLCSFPKAAVERIMKESPGLEHRLLKQTLDELDEALEWMVTLGRKTAPEKVASFLLMIARNMDSSIDPAAGSACFDLPLTRADISDFLGLTNETVSRQLTRLRADGVIRIENKRHVTVDSMSRLEQRCGGRGARQPAFE	not soluble
MGSDKIHHHHHHMVEKLASSEVANRLNEWYDTIKQQDVERASKLRNEVQEAINQMEEDQNVLQYFNLIDSRFRQVIEEFDKSKTILKSIKNQTERSETDQLLRYYYFFFNGLYEFYKRNYIQAIHYYRQAENFLISIPDEIEHAEFHIQLANAYYGIEQNFFSLSHAKKALNIYLNHENYVNRLITTQLTIAANELDLKQYGSAETLYKKAIKTASEHNHAFMEVLGYFNLGICYELQDKLEFARDCFEAALDISYPQENKRDSYLRIKYMLARTLFKMELVDEAMDWFEDAQTLVDATNEETYQAKLKIIYSIYKTYDETSIDNGLEVLREKKLWHDVSDLTTNAARHFKKKEMFKLATKYFSEALLAKEKIPMLHKEVESE	not soluble
MGSDKIHHHHHHMVGIVLASHGGFADGIAESAQMLFGPQDNFAHVILKPSEGPEDIKGKMNEAIASFADQEEVLFLVDLWGGTPFNQANGLLDGHDKWAIVSGLNLPMVVEALTQRMINDKATAQDIATAIIKPAKDGIKTKPESLMPAEEKAAAPAAAAGAPKEAIPEGTVLGDGHIKIVGARIDSRLLHGQVVTGWIPSLHPDRVIVVSDKIAKDDLRKSMIREAAPAGTVAHTVPLEKMKEIYEDPRFGTTHAFLLFENPEDALQTIKNGVDIKTLNVGSMSYSKGKVNANNVLSMDQTDVDTFRELEKMGIKFDVRKVPSDNPENMDSILKKAQSLLDEQSSSEKRS	not soluble
MGSDKIHHHHHHMVGTDHVVHSLVACALCFKAVTLPLSSQTQILSGWGRTMPVQAKVVQPASVQQVQELVRQASPASLIARGLGRSYGDAAQLDGASAVEMGAFDQINLDLVKGSVTAGAGVSLNQLLRVIVPAGFFLPVTPGTRNVTIGGAIAADVHGKNHHVDGSFGNHLQRLLLVDGRGELRELTPSGKSSVDEIEQFWATVGGMGLTGIIVEATFSLIPISSSLISVNTARYHNLDELMAAMVASDSNYRYSVAWIDSLNAKGRGVLSCGDHAMAEQLPTSQQADPLVYDPKPLASAPTFLPVGLLNKLTVRAFNEAWFRKAPKQRLGELQTIGAYFHPLDGVQDWNRIYGPAGFLQYQFVVPDNASHLVLYTLEALRKIGTSSFLTVLKRFGPSNPGHLSFPMQGWTLAVDLPAAVPGLFEVLDHLDEHIAAENGRLYLAKDSRQSATILRRTYPRLEEWQQAREKLDPSKVFSSDMAIRTGL	not soluble
MGSDKIHHHHHHMVIHKETMRSANEKSVLQRIFTEGPISKSQVARDVSLNKVTVSQIINKFISSRLVVEAGSGDSTQQGGRKPELVQINSKYGYVVCIDLGYQELSVLSMSINGQKLDSRHTIFGNDDINIAIEKIYEILVEFQEMHKERLLGLLVSIHGIVHKNQVIYSPFWNMKQIDLADTLSKKFDIPVILENEANLTATFERDYSVNEIQNAVSISMHKGIGAGIIIDGELYRGRKGEAGEIGQTVAFESENQSLEKSNKIEDVCSPQVILARIKNAKKLEYINWQLVRQMFDDKDQETLEILKEFENNVAKIINNVIVSFDPDVLVVNAYIFKEFPEILERISNGFAHVSVRNTPIVLSENVKNASLYGGCAQMIRTILGVSKLKLQYKK	not soluble
MGSDKIHHHHHHMVIKEFNSLNTELVREIEKLTETCGKFDGIQEEVNLDDGFNFNKSMKWLFVLYEKDKVVSVVSIFAPKEEEGEISACTLPEYRRKGYFKELLSKAKNELLKYNVPKILFVCPKGSKQGEAVIKNSDAIYKFAEYTMNFNKNKFKAKGKYITKLAEANYNDLNKITKVASDVYSESYEQANSMMKNALESSDRLQFKLKLKEDYIGVVAAYFYHDKVSIFGVGILPEYRGRGFGREMMSMLLEYLIERDYDDIALEVDSNNKRAFELYKSIGFQIEREIDYYEEKINNTFYSY	not soluble
MGSDKIHHHHHHMVKCIEEYVQVDDFKMYSKVFQGKKLQPVIIMEAGYGDYSKTWDHIAEELTEFGTVLTYDRAGLGKSGNSSKRRISSEMIKDLRSCLEKLQLKPPYIFVGHSFGGINARLFATFYSEDMLGIVLVDSTPENYKKDFLLIMSPEFQEAYYKQFVHESSYKEFMFSLGEADKHCQSMRNIPLVVLAAGKKAYYSQEAQMKWLQLQEELLRLSNNHKFIIAEQSGHYIQKDEPHYIIDAVKWIIEVGEG	not soluble
MGSDKIHHHHHHMVKHHCRMVFKFKLGFFTDLHGSEYSFKRSLNIAKSKRVDFLIISGGLIAKEILFVEDIGGRYFLNGKKVNLNNLNEDALRSGKYIVVDKKEVIEDIKSDKSKLEKIVIEKASEQMSRWVKIAEEIFRLEKVFWSPAHGDIPQLDSILKNYGSNLINENVINLEEIQIVSLGFGSPIGNSYREIPDSELYIKGKSLLKDADKERLIMNFHMPPLNTKLDNAKVGLRKSHVGSKAVLDLITEFQPIISLHGHVHESTSMDKVGETIAINPGSLYQLGDPSIVTFEVHKELKSFGSVNVSKYVIKNIEFVSTNPLDVI	not soluble
MGSDKIHHHHHHMVKNNNIAVKVEHVSKSFKLPTESSQSLRTTLVNLFKGIKGYVEYNVLQDISFEVEKGDFFGIVGRNGSGKSTLLKILSQIYVPERGTVAVDGKLVSFIELGVGFNPELTGKENVYLNGAMLGFTAEEIDAMYDDIVEFAELSEFMNQKLKNYSSGMQVRLAFSVAIKAQGDILILDEVLAVGDEAFQRKCNDYFLERKKSGKTTILVTHDMGAVKKYCNKALLIEKGYVKALGEPDDVANQYSFDNVLASISEVTENEEPLHQSDIVKDLQINLVSKNQIEPDESIEIEFRYTVLEDIETHVAFTFLDLERHFDVYNDNSMDLKTFGKGEKFFRVKCKLPSINQAKLKMAVSVRNSNKQPLLFAKTSDTPAIFISRKFSTDNIAEEDAATGFIQRNSQWELLD	not soluble
